For orientation: stoichiometry N means the number of molecules, sites or subunits per partner or assembly. For orientation: Kd means the equilibrium constant for the complex coming apart.

The text below walks through data of publication PMC6746776, “TA*p63 and GTAp63 achieve tighter transcriptional regulation in quality control by converting an inhibitory element into an additional transactivation domain” (Cell Death & Disease, 2019).

Values joined by “and” are separate entries in the source; they are usually repeats but may differ in a detail not shown here. Equal values may be shown once. Residues, ends and D or L forms follow the SMILES beside them.

For data set [1], the target named is GTAp63α (not stated (isoform of humans and great apes)). Kind of data set: native gel or EMSA; Blue-Native PAGE (3-12%) of lysates of transiently transfected H1299 cells, untreated, harvested 24 h after transfection; western blot with anti-myc. Background: Mobility shift assays separate free from complexed probe on a gel.
The target is the same in data set [2]. In words: native gel or EMSA; Blue-Native PAGE of lysates of transiently transfected U2OS or H1299 cells treated with 10 µM doxorubicin for 6 h; western blot with anti-myc.
The target is the same in data set [3]. The data set is described as above. The source holds these as a separate data set.
Data set [4] deals with TAp63α. Kind of data set: native gel or EMSA; Blue-Native PAGE (3-12%) of lysates of transiently transfected H1299 cells, untreated, harvested 24 h after transfection; western blot with anti-myc.
The target of data set [5] is TAp63α. In words: native gel or EMSA; Blue-Native PAGE of lysates of transiently transfected U2OS or H1299 cells treated with 10 µM doxorubicin for 6 h; western blot with anti-myc.
Data set [6] has as its target GTAp63α FWL (not stated (isoform of humans and great apes)). Kind of data set: SEC; in vitro translated protein in rabbit reticulocyte lysate on Superose 6 3.2/300, 50 mM sodium phosphate pH 7.8, 100 mM NaCl, 4 °C; fractions analysed by western blot. On the technique in general: SEC sorts molecules by how far they enter the pores of the column.
Data set [7] has as its target T1, p300 Taz2 domain (Homo sapiens, UniProt Q09472).
T1 construct: The p300 Taz2 domain was expressed and purified as described before; made in house
T1 sequence (Q09472 1728-1809 limits assumed): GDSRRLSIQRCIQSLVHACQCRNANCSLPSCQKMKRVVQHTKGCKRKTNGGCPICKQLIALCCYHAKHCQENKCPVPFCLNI
In words: Fluorescence anisotropy with the Taz2 domain of p300. As to conditions: 100 nM N-terminal fluorescein-labeled peptide, increasing concentration of Taz2, 22 °C, two site specific binding fit (GraphPad Prism 5). The method, then:
Fig. 5 Transactivation potential of constitutively tetrameric TA*p63 and GTAp63 isoforms and its correlation with p300 Taz2 domain interaction. a TA assay of C-terminal TA*p63 and GTAp63 isoforms in comparison to TAp63 C-terminal isoforms on the p21 promotor. p53 wt was used as positive, the p53 R175H mutant as negative control. Hundred nanogram of each plasmid (pcDNA3, pGL3 and pRL-CMV) were transiently transfected in Saos-2 cells (12-well plate). Cells were harvested 24 h after transfection and assay was performed. b, c TA titration assay of TA*p63γ and GTAp63γ compared to TAp63γ on the p21 promotor. […] Protein levels were determined via western blotting. […] GAPDH was used as loading control. p63 isoforms were detected with the p63 antibody ab124762 (Abcam) for sensitivity reasons. e TA assay of FWL and potential new TA motif mutants to alanine in the N-terminus of the TA*/GTAp63 isoforms (TA*p63: Y18* F22*, W31* Y35*; GTAp63:.W9′ F12′ V15′, W29′ Y33′) on the p21 promotor. p53 wt was used as positive control, the p53 R175H mutant as negative control. […] Bars represent the mean value of the biological triplicate, error bars represent SD, crosses represent mean value of the technical replicates. f Fluorescence anisotropy experiment with the Taz2 domain of p300 and either N-terminal fluorescein-tagged TA*-GTA*- (1*-39*) or GTA-GTA*- (1′-37′) peptide. […]
On the technique in general: Polarisation of emitted light reports the rotation of a fluorescent probe.

The subject of data set [8] is TA*p63α. Kind of data set: BN-PAGE oligomeric state of TA*p63α upon Dox treatment. The conditions noted are these: H1299 stably expressing; pre-incubated with inhibitor 5, 25, 50 µM for 1 h, then 10 µM Dox 6 h; BN-PAGE.
Procedure: (§1) As a control, we used the S582/S583A mutants, which remove the Chk2 priming site preventing tetramerization[13].
(§2) Three hundred nanogram expression vector carrying the p63α gene were transiently transfected in U2OS cells (12-well plate). The next day, cells were treated with 10 µM Dox for 6 h. Migration of the different oligomeric states is indicated by T (tetramer), D (dimer), and M (monomer). […] Western blot analysis was carried out using an anti-myc antibody (4A6, Merck). Cells were pre-incubated with increasing Chk2 (BML-277, Merck) or CK1 inhibitor (PF670462, Sigma–Aldrich) concentrations (5, 25, 50 µM) for 1 h. Afterwards, 10 µM Dox was added and cells were harvested 6 h later. Migration of the different oligomeric states is indicated by T (tetramer), D (dimer), and M (monomer). Vinculin was used as loading control. Protein levels loaded on BN-PAGE were adjusted to equal p63 amounts by prior western blot analysis. SDS-PAGE to detect phosphoshifts were not input adjusted
(§3) H1299 cells were transfected using the Qiagen Effectene kit according to the manufacturer’s manual in a 12-well plate or H1299 cells stably expressing p63 isoforms were used. Cells were harvested and lysed in NP lysis buffer (20 mM Tris, 150 mM NaCl, 2 mM MgCl2, 20 mM CHAPS, 1 mM DTT, complete protease inhibitor cocktail (Roche), PhosSTOP (Roche) pH 7.4 or pH 8.0). Benzonase (Merck) was added and samples were lysed on ice for 1 h. BN-PAGE (3–12%, Thermo Fisher Scientific) was performed and blotted as previously described[17],[35]. Protein levels loaded on BN-PAGE were adjusted to equal p63 amounts by prior western blot analysis. SDS-PAGE to detect phosphoshifts were not input adjusted.
(§4) 300 ng expression vector carrying the p63 gene were transiently transfected in H1299 cells (12-well plate). The next day, cells were treated with 10 µM Dox for 6 h. Migration of the different oligomeric states is indicated by T (tetramer), D (dimer) and M (monomer). […] Stably p63 expressing H1299 were treated with 10 µM Dox for up to 10 h. Protein levels loaded on BN-PAGE were adjusted to equal p63 amounts by prior western blot analysis. SDS-PAGE to detect phosphoshifts were not input adjusted.
The subject of data set [9] is GTAp63α. Kind of data set: BN-PAGE oligomeric state of GTAp63α upon Dox treatment. As to conditions: H1299 stably expressing; pre-incubated with inhibitor 5, 25, 50 µM for 1 h, then 10 µM Dox 6 h; BN-PAGE.
Procedure: as §1, §2, §3, §4
In data set [10] the test system is TAp63α. Kind of data set: BN-PAGE oligomeric state of TAp63α upon Dox treatment. The conditions noted are these: H1299 stably expressing; pre-incubated with inhibitor 5, 25, 50 µM for 1 h, then 10 µM Dox 6 h; BN-PAGE.
Procedure: as §1, §2, §3, §4
Data set [11] deals with the molecule itself. In words: native gel or EMSA; Blue-Native PAGE of lysates of transiently transfected U2OS or H1299 cells treated with 10 µM doxorubicin for 6 h; western blot with anti-myc.
Data set [12] deals with the molecule itself. Kind of data set: native gel or EMSA; Blue-Native PAGE (3-12%) of lysates of transiently transfected H1299 cells, untreated, harvested 24 h after transfection; western blot with anti-myc.

For GTAp63α (natural protein), the stoichiometry N in data set [1] was determined as 2; in data set [2], 2; in data set [3] it was 4. As for TAp63α (natural protein), the stoichiometry N in data set [4] amounted to 2; in data set [5] it was 4. Take GTAp63α FWL (natural protein): in data set [6], the stoichiometry N stood at 2.

With `CC[C@H](C)[C@H](NC(=O)[C@H](Cc1ccc(O)cc1)NC(=O)[C@@H]1CCCN1C(=O)[C@H](CC(=O)O)NC(=O)[C@@H]1CCCN1C(=O)[C@H](CS)NC(=O)[C@H](Cc1ccc(O)cc1)NC(=O)[C@H](CCC(N)=O)NC(=O)[C@H](CC(C)C)NC(=O)[C@@H](NC(=O)[C@H](C)NC(=O)[C@H](CS)NC(=O)[C@H](CCCNC(=N)N)NC(=O)[C@H](CO)NC(=O)[C@@H](NC(=O)[C@H](CCC(=O)O)NC(=O)[C@H](Cc1ccccc1)NC(=O)[C@H](CC(N)=O)NC(=O)[C@@H](N)CCSC)[C@@H](C)O)[C@@H](C)O)C(=O)N[C@@H](CCC(N)=O)C(=O)N[C@@H](CCCNC(=N)N)C(=O)N[C@@H](Cc1ccccc1)C(=O)N[C@H](C(=O)N[C@@H](CCC(=O)O)C(=O)N[C@H](C(=O)N1CCC[C@H]1C(=O)N[C@@H](C)C(=O)N[C@@H](Cc1c[nH]cn1)C(=O)N[C@@H](Cc1ccccc1)C(=O)N[C@@H](CO)C(=O)N[C@@H](Cc1c[nH]c2ccccc12)C(=O)N[C@@H](CCCCN)C(=O)N[C@@H](CCC(=O)O)C(=O)N[C@@H](CO)C(=O)N[C@@H](Cc1ccc(O)cc1)C(=O)N[C@@H](Cc1ccc(O)cc1)C(=O)N[C@@H](CCCNC(=N)N)C(=O)N[C@@H](CO)C(=O)N[C@H](C(=O)O)[C@@H](C)O)[C@@H](C)O)C(C)C` [TA*-GTA*] (H-MNFETSRCATLQYCPDPYIQRFVETPAHFSWKESYYRST-OH), the Kd in [7] is 13.2 ± 0.93 µM. As to `CSCC[C@H](N)C(=O)N[C@@H](CCCCN)C(=O)N[C@@H](CS)C(=O)N[C@@H](Cc1c[nH]c2ccccc12)C(=O)N[C@@H](CCC(=O)O)C(=O)N[C@@H](CCC(N)=O)C(=O)N[C@@H](CCCNC(=N)N)C(=O)N[C@@H](CC(=O)O)C(=O)N[C@@H](Cc1c[nH]c2ccccc12)C(=O)N[C@H](C(=O)N[C@@H](C)C(=O)N[C@@H](Cc1ccccc1)C(=O)N[C@H](C(=O)N[C@@H](CCCCN)C(=O)N[C@H](C(=O)NCC(=O)N[C@@H](CCCCN)C(=O)N1CCC[C@H]1C(=O)N[C@@H](CS)C(=O)N[C@@H](Cc1ccccc1)C(=O)N[C@H](C(=O)N[C@@H](CCC(=O)O)C(=O)N[C@H](C(=O)N1CCC[C@H]1C(=O)N[C@@H](C)C(=O)N[C@@H](Cc1c[nH]cn1)C(=O)N[C@@H](Cc1ccccc1)C(=O)N[C@@H](CO)C(=O)N[C@@H](Cc1c[nH]c2ccccc12)C(=O)N[C@@H](CCCCN)C(=O)N[C@@H](CCC(=O)O)C(=O)N[C@@H](CO)C(=O)N[C@@H](Cc1ccc(O)cc1)C(=O)N[C@@H](Cc1ccc(O)cc1)C(=O)N[C@@H](CCCNC(=N)N)C(=O)N[C@@H](CO)C(=O)N[C@H](C(=O)O)[C@@H](C)O)[C@@H](C)O)C(C)C)C(C)C)[C@@H](C)O)[C@@H](C)O` [GTA-GTA*] (H-MKCWEQRDWTAFTKVGKPCFVETPAHFSWKESYYRST-OH), the Kd in [7] came out at 4.79 ± 0.24 µM. On to `Nc1nccc(-c2c(-c3ccc(F)cc3)ncn2C2CCCCC2)n1` [PF670462], for which the “prevention of Dox-induced tetramerization, TA*p63α” value in data set [8] is on record as “Tetramerization can also be prevented”. Further, in data set [9], the “prevention of Dox-induced tetramerization, GTAp63α” value was “Tetramerization can also be prevented”. Besides, in data set [10], the “prevention of Dox-induced tetramerization, TAp63α” value was “Tetramerization can also be prevented”. On to `NC(=O)c1ccc2nc(-c3ccc(Oc4ccc(Cl)cc4)cc3)[nH]c2c1` [BML-277], for which the “prevention of Dox-induced tetramerization, TA*p63α” value in data set [8] is “Tetramerization can also be prevented”. In data set [9], the “prevention of Dox-induced tetramerization, GTAp63α” value is “Tetramerization can also be prevented”. Moreover, the “prevention of Dox-induced tetramerization, TAp63α” value in data set [10] is listed as “Tetramerization can also be prevented”.

B1: TA*p63α (natural protein, UniProt Q9H3D4-1 1-680, looked up)
chain: MNFETSRCATLQYCPDPYIQRFVETPAHFSWKESYYRSTMSQSTQTNEFLSPEVFQHIWDFLEQPICSVQPIDLNFVDEPSEDGATNKIEISMDCIRMQDSDLSDPMWPQYTNLGLLNSMDQQIQNGSSSTSPYNTDHAQNSVTAPSPYAQPSSTFDALSPSPAIPSNTDYPGPHSFDVSFQQSSTAKSATWTYSTELKKLYCQIAKTCPIQIKVMTPPPQGAVIRAMPVYKKAEHVTEVVKRCPNHELSREFNEGQIAPPSHLIRVEGNSHAQYVEDPITGRQSVLVPYEPPQVGTEFTTVLYNFMCNSSCVGGMNRRPILIIVTLETRDGQVLGRRCFEARICACPGRDRKADEDSIRKQQVSDSTKNGDGTKRPFRQNTHGIQMTSIKKRRSPDDELLYLPVRGRETYEMLLKIKESLELMQYLPQHTIETYRQQQQQQHQHLLQKQTSIQSPSSYGNSSPPLNKMNSMNKLPSVSQLINPQQRNALTPTTIPDGMGANIPMMGTHMPMAGDMNGLSPTQALPPPLSMPSTSHCTPPPPYPTDCSIVSFLARLGCSSCLDYFTTQGLTTIYQIEHYSMDDLASLKIPEQFRHAIWKGILDHRQLHEFSSPSHLLRTPSSASTVSVGSSETRGERVIDAVRFTLRQTISFPPRDEWNDFNFDMDARRNKQQRIKEEGE
notes: TA*p63α: another translation start site adds 39 aa N-terminally to TAp63α; phosphorylated after doxorubicin (phosphoshift on SDS-PAGE); also called myc-tagged TA*p63α wt; source: U2OS, transiently transfected, in lysate; not shown: myc, N-terminal, kept
Take B1: the “stoichiometry N” value in data set [11] was 4 and 2.

B2: TA*p63α (natural protein, UniProt Q9H3D4-1 1-680, looked up)
chain: MNFETSRCATLQYCPDPYIQRFVETPAHFSWKESYYRSTMSQSTQTNEFLSPEVFQHIWDFLEQPICSVQPIDLNFVDEPSEDGATNKIEISMDCIRMQDSDLSDPMWPQYTNLGLLNSMDQQIQNGSSSTSPYNTDHAQNSVTAPSPYAQPSSTFDALSPSPAIPSNTDYPGPHSFDVSFQQSSTAKSATWTYSTELKKLYCQIAKTCPIQIKVMTPPPQGAVIRAMPVYKKAEHVTEVVKRCPNHELSREFNEGQIAPPSHLIRVEGNSHAQYVEDPITGRQSVLVPYEPPQVGTEFTTVLYNFMCNSSCVGGMNRRPILIIVTLETRDGQVLGRRCFEARICACPGRDRKADEDSIRKQQVSDSTKNGDGTKRPFRQNTHGIQMTSIKKRRSPDDELLYLPVRGRETYEMLLKIKESLELMQYLPQHTIETYRQQQQQQHQHLLQKQTSIQSPSSYGNSSPPLNKMNSMNKLPSVSQLINPQQRNALTPTTIPDGMGANIPMMGTHMPMAGDMNGLSPTQALPPPLSMPSTSHCTPPPPYPTDCSIVSFLARLGCSSCLDYFTTQGLTTIYQIEHYSMDDLASLKIPEQFRHAIWKGILDHRQLHEFSSPSHLLRTPSSASTVSVGSSETRGERVIDAVRFTLRQTISFPPRDEWNDFNFDMDARRNKQQRIKEEGE
notes: TA*p63α: another translation start site adds 39 aa N-terminally to TAp63α; also called myc-tagged TA*p63α; source: H1299, transiently transfected (pcDNA3), in lysate; not shown: myc, N-terminal, kept
B2: the figures for the “stoichiometry N” value in data set [11] and in data set [12] were 4 and 2, respectively.
